Read-outs that look alike come from different tables or passages of the source.

The target in assay [1] is tissue factor (TF) antigen (UniProt P13726). Description: SPR; against wild-type D3H44 Fab; * estimated from the same Fab with another L chain tag.
For assay [2] the target is unchanged. Description: SPR (ProteOn), Fab captured on anti-penta His, TF as analyte, 1:1 fit; * estimated from the same Fab with another L chain tag.
Assay [3] concerns the target D3H44 light chain Q124E_Q160E_T180E. Nature of the assay: SMCA: four chains co-expressed in CHO-3E7, protein A, LC-MS; competing light chain m21.
The target is the same in assay [4]. Nature of the assay: SMCA: four chains co-expressed in CHO-3E7, protein A, LC-MS; competing light chain m24.
For assay [5], the target named is D3H44 light chain Q38E_Q124E_Q160E_T180E. Description: SMCA: four chains co-expressed in CHO-3E7, protein A, LC-MS; competing light chain m28.
Assay [6] concerns the target D3H44 light chain Q124E_Q160E_T180E. Nature of the assay: SMCA: four chains co-expressed in CHO-3E7, protein A, LC-MS; competing light chain m18.
The target is the same in assay [7]. Description: SMCA: H1, H2, L1, L2 co-expressed in CHO-3E7, protein A, LC-MS; competitor light chain m44.
The target is the same in assay [8]. Nature of the assay: SMCA: 2 heavy + 2 light chains co-expressed, protein A, LC-MS; competing light chain m4.
Assay [9] addresses D3H44 light chain Q124E_N137K_Q160E_S174R_T180E. Nature of the assay: SMCA: 2 heavy + 2 light chains co-expressed, protein A, LC-MS; competing light chain m38.
Assay [10] deals with D3H44 light chain P44F_S131K. Nature of the assay: SMCA: LC-MS of protein A purified product after co-expression of H1, H2, L1, L2 in CHO-3E7; competing light chain m46.
Assay [11] deals with D3H44 light chain P44F_Q124R_Q160K_T178R. The description is as above.
In assay [12] the target is D3H44 light chain Q124E_V133W_S176T_T178L_T180E. Nature of the assay: SMCA: 2 heavy + 2 light chains co-expressed, protein A, LC-MS; competing light chain m24.
Assay [13] has the same target. Description: SMCA co-expression, LC-MS; competing light chain m6.
Assay [14] addresses D3H44 light chain V133G_N137K_S174R_S176R. Nature of the assay: SMCA: 2 heavy + 2 light chains co-expressed, protein A, LC-MS; competing light chain m48.
Assay [15] has the same target. Description: SMCA co-expression, LC-MS; competing light chain m24.
Assay [16] has the same target. Nature of the assay: SMCA co-expression, LC-MS; competing light chain m20.
The target in assay [17] is D3H44 light chain Q124R_Q160K_T178R. Description: SMCA: LC-MS of protein A purified product after co-expression of H1, H2, L1, L2 in CHO-3E7; competing light chain m48.
A further assay concerns the target D3H44 light chain Q124R. Description: SMCA: LC-MS of protein A purified product after co-expression of H1, H2, L1, L2 in CHO-3E7; competing light chain m50.
The target in assay [18] is D3H44 light chain Q124R_Q160K_T178R. Description: SMCA: H1, H2, L1, L2 co-expressed in CHO-3E7, protein A, LC-MS; competitor light chain m28.
Assay [19] has as its target D3H44 light chain Q38R_S131K. Description: SMCA: H1, H2, L1, L2 co-expressed in CHO-3E7, protein A, LC-MS; competitor light chain m4.
Assay [20] addresses D3H44 light chain Q38E_Q124E_Q160E_T180E. Description: SMCA: H1, H2, L1, L2 co-expressed in CHO-3E7, protein A, LC-MS; competitor light chain m8.
Assay [21] addresses D3H44 Fab heavy chain L124E_L143E_K145M (H1 of LCCA sets 9269, 9266, 9267, 9260, 9262, 9263).
In assay [22] the target is D3H44 Fab heavy chain L124E_L143D_K145T (H1 of LCCA sets 9214, 9217, 9216, 9219, 9220, 9225, 9228, 9229).
Assay [23] deals with D3H44 Fab heavy chain L124E_L143E_K145M (H1 of LCCA sets 9269, 9266, 9267, 9260, 9262, 9263). This is another data set of the same source.
Assay [24] has as its target D3H44 Fab heavy chain L124E_L143D_K145T (H1 of LCCA sets 9214, 9217, 9216, 9219, 9220, 9225, 9228, 9229). The source holds these as a separate data set.
In assay [25] the target is D3H44 Fab heavy chain L124E_L143E_K145M. Nature of the assay: LCCA, L1:L2 DNA 1:3 normalised to 1:1, SPR of light chain tags; competitor m56.
In assay [26] the target is D3H44 Fab heavy chain L124R_D146N_Q179K. The description is as above.
Assay [27] has as its target D3H44 Fab heavy chain L124R_D146N_Q179K (H1 of LCCA sets 9358, 9359, 9357, 9351, 9352, 9353, 9354, 9350). Nature of the assay: LCCA: H1 co-expressed with L1 and L2 (DNA 333:250:749 ng), His-tag capture on SPR chip, light chain tags detected with anti-HA/anti-FLAG; competitor L1 Q124E_V133G_S176D_T178E_T180E.
Assay [28] has as its target D3H44 Fab heavy chain L124E_L143E_K145M (H1 of LCCA sets 9269, 9266, 9267, 9260, 9262, 9263). Nature of the assay: LCCA: H1 co-expressed with L1 and L2 (DNA 333:250:749 ng), His-tag capture on SPR chip, light chain tags detected with anti-HA/anti-FLAG; competitor L2 V133G_S176D_T178D_T180E.
Assay [29] addresses D3H44 Fab heavy chain L124E_L143D_K145T (H1 of LCCA sets 9214, 9217, 9216, 9219, 9220, 9225, 9228, 9229). The description is as above.
Assay [30] has the same target. Description: LCCA: H1 co-expressed with L1 and L2 (DNA 333:250:749 ng), His-tag capture on SPR chip, light chain tags detected with anti-HA/anti-FLAG; competitor L2 Q124E_V133G_S176D_T178E_T180E.
The target is the same in assay [31]. Nature of the assay: LCCA: H1 co-expressed with L1 and L2 (DNA 333:250:749 ng), His-tag capture on SPR chip, light chain tags detected with anti-HA/anti-FLAG; competitor L2 Q124E_V133G_S176D_T178D_T180E.
Assay [32] deals with Trastuzumab light chain P44F_S131K. Description: SMCA: four chains co-expressed in CHO-3E7, protein A, LC-MS; competing light chain m16.
The target in assay [33] is Trastuzumab light chain P44F_Q124R_Q160K_T178R. Described as above.

On to “D3H44 Fab heterodimer, H1 L124E_L143E_K145T / L1 Q124K_V133G_S176R_T178K (H1L1 of LCCA sets 9308 and 9300)”, for which the Change in KD with respect to wild type (-(log(KD design) - log(KD wt))) in [1] was -0.12. The Kd in assay [2] is 0.21 nM.

“D3H44 full-length heavy chain D146G_Q179K (from UniProt P0DOX5 2-448)”: in assay [3], the % H1L1 Pairing (over all H1 species) worked out at 100%.

“D3H44 full-length heavy chain H172R_S186R (from UniProt P0DOX5 2-448)” had a % H1L1 Pairing (over all H1 species) in assay [4] of 100%.

In [5], “D3H44 full-length heavy chain Q39R_S186R (from UniProt P0DOX5 2-448)” came in with a % H1L1 Pairing (over all H1 species) of 100%.

With “D3H44 full-length heavy chain Q179K (from UniProt P0DOX5 2-448)”, in assay [6], the % H1L1 Pairing (over all H1 species) came out at 100%.

With “D3H44 heavy chain D146G_Q179K (from UniProt P0DOX5 2-448)”, the % H1L1 Pairing (over all H1 species) in assay [7] is 100%.

Take “D3H44 heavy chain H172R_S186R (from UniProt P0DOX5 2-448)”: in assay [8], the % H1L1 Pairing (over all H1 species) was found to be 100%.

Turning to “D3H44 heavy chain H172T_Q179K (from UniProt P0DOX5 2-448)”, in assay [9], the % H1L1 Pairing (over all H1 species) worked out at 100%.

As to “D3H44 heavy chain L45P_K145T_H172R_Q179E (from UniProt P0DOX5 2-448)”, in assay [10], the % H1L1 Pairing (over all H1 species) came out at 75.5%.

Consider “D3H44 heavy chain L45P_L143E_K145T (from UniProt P0DOX5 2-448)”, for which the % H1L1 Pairing (over all H1 species) in [11] came to 88.1%.

For “D3H44 heavy chain L124A_L143F_Q179K (from UniProt P0DOX5 2-448)”, in assay [12], the % H1L1 Pairing (over all H1 species) was 100%. Also, in [13], the % H1L1 Pairing (over all H1 species) is 100% and the Change in % H1L1 Pairing (over all H1 species) with respect to wild type amounted to 38.1%.

As to “D3H44 heavy chain L124E_H172T (from UniProt P0DOX5 2-448)”, the % H1L1 Pairing (over all H1 species) in assay [14] is 100%; in assay [15] it was 50.5%; in [16] it was 100%. Besides, the results for the Change in % H1L1 Pairing (over all H1 species) with respect to wild type in assay [15] and in [16] were 9.9% and 38.1%, respectively.

As for “D3H44 heavy chain L143E_K145T (from UniProt P0DOX5 2-448)”, the % H1L1 Pairing (over all H1 species) in assay [17] came to 83.2%; with D3H44 light chain Q124R it was 91.5%.

For the substance “D3H44 heavy chain L143E_K145T_H172R (from UniProt P0DOX5 2-448)”, the % H1L1 Pairing (over all H1 species) in assay [18] was 100%.

The substance “D3H44 heavy chain Q39E_K145T_Q179E (from UniProt P0DOX5 2-448)” gave a % H1L1 Pairing (over all H1 species) in [19] of 100%.

On to “D3H44 heavy chain Q39R_S186R (from UniProt P0DOX5 2-448)”, for which the % H1L1 Pairing (over all H1 species) in assay [20] worked out at 100%.

Turning to “D3H44 light chain Q124K_V133G_S176R_T178K”, the median LCCA performance normalized to a L1:L2 DNA ratio of 1:1 (ratio H1-L1:H1-L2), H1-L1 share (ratio part of 100) turned out to be 88 in assay [21]; 81 in [22]; 85 in assay [23]; 84 in assay [24]; 63 in assay [28]; 82 in assay [29]. Further, the values for the median LCCA performance normalized to a L1:L2 DNA ratio of 1:1 (ratio H1-L1:H1-L2), H1-L1 share (ratio part of 100) in [30] and in [31] were 79 and 85, respectively. For the same substance, the H1L1:H1L2 normalized median ratio in [25] is 84%. Further, the H1L1:H1L2 normalized median scalar value ln(r1/f1) in [25] was 1.67. Also, the H2L2:H2L1 normalized median ratio in [26] worked out at 16%. Moreover, in [27], the median LCCA performance normalized to a L1:L2 DNA ratio of 1:1 (ratio H1-L1:H1-L2), H1-L2 share (ratio part of 100) was found to be 16.

Take “Trastuzumab full-length heavy chain L45P_K145T_H172R_Q179E (from UniProt P0DOX5 2-448)”: the % H2L2 Pairing (over all H2 species) in assay [32] came out at 96.3%.

In the case of “Trastuzumab full-length heavy chain L45P_L143E_K145T (from UniProt P0DOX5 2-448)”, the % H2L2 Pairing (over all H2 species) in assay [33] turned out to be 94.8%.

By Kd is commonly meant the concentration at which binding is half-saturated.

The values above are taken from patent publication US11306156.
